Holding throughout (assay): cells, lysate or membranes named
Substrate in data set [1]: O=C(CO)COP(=O)(O)O
It counts as biochemical, C. acetobutylicum. The conditions noted are these: other: substrate dihydroxyacetone phosphate 0.15-1.5 mM, crude extract, imidazole-HCl pH 7.0, 30° C. From the text: (§1) 1,2-Propanediol pathway branches from glycolysis and competes for the intermediate dihydroxyacetone phosphate, with the glycolytic pathway. […] We amplified the mgsA genes from the microorganisms: C. acetobutylicum (ATCC#824), B. subtilis 168, C. difficile R20291, E. coli MG1655, T. thermophilus HB27, K. pneumoniae MGH78578, P. fluorescens Pf-5, and R. eutropha H16 respectively. These genes were cloned and expressed in wild type E. coli BW25113 using eight plasmids pRJ1-pRJ8. Each gene was under the control of the IPTG-inducible pLlacO1 promoter. Using dihydroxyacetone-phosphate as the substrate, we successfully detected the functional expression of all mgsA genes in vitro, where the specific activities varied from 0.0052 U/mg to 0.1242 U/mg (Table 1). […] Without the over-expression of mgsA gene, we also detected the native expression of E. coli mgsA, which gave a specific activity of only 0.0008 U/mg, much lower than that of any over-expression.
(§2) Using the primers listed in Table 5, the mgsA genes were PCR amplified from the genomic DNA of C. acetobutylicum (ATCC824), B. subtilis 168, Clostridium difficile R20291, E. coli MG1655, Thermus thermophilus HB27, K. pneumoniae MGH78578, Pseudomonas fluorescens Pf-5, and Ralstonia eutropha H16 respectively. […]
(§3) The assay was carried out using a two-step procedure. […] The samples were diluted 10 times before measuring the absorbance at 550 nm.

Substrate in data set [2]: O=C(CO)COP(=O)(O)O
It counts as biochemical, R. eutropha. The conditions noted are these: other: substrate dihydroxyacetone phosphate 0.15-1.5 mM, crude extract, imidazole-HCl pH 7.0, 30° C.
Text: as §1, §2, §3

Substrate in data set [3]: O=C(CO)COP(=O)(O)O
Type of data set: biochemical, B. subtilis. The conditions noted are these: other: substrate dihydroxyacetone phosphate 0.15-1.5 mM, crude extract, imidazole-HCl pH 7.0, 30° C.
Text: as §1, §2, §3

Substrate in data set [4]: CC(=O)C=O
It counts as biochemical, E. coli. The following applies: other: substrate methylglyoxal 20-120 mM, 0.25 mM NADH, crude extract, imidazole-HCl pH 7.0, 37° C. The procedure:
When the gene is over-expressed by pRJ10, the specific activity was determined to be 1.62±0.012 U/mg.

Substrate in data set [5]: O=C(CO)COP(=O)(O)O
Type of data set: biochemical, T. thermophilus. The conditions noted are these: other: substrate dihydroxyacetone phosphate 0.15-1.5 mM, crude extract, imidazole-HCl pH 7.0, 30° C.
Text: as §1, §2, §3

Substrate in data set [6]: O=C(CO)COP(=O)(O)O
Type of data set: biochemical, P. fluorescens. The following applies: other: substrate dihydroxyacetone phosphate 0.15-1.5 mM, crude extract, imidazole-HCl pH 7.0, 30° C.
Text: as §1, §2, §3

The results in this text go back to patent publication US20140134690A1, “MICROBES AND METHODS FOR PRODUCING 1-PROPANOL” (University of Georgia Research Foundation, Inc., priority 2012, published 2014).

B1: Clostridium acetobutylicum (ATCC 824) methylglyoxal synthase (mgsA), wild type (Clostridium acetobutylicum ATCC 824) (protein)
chain: MNSKKKIALVAHDNRKKALISWCEANSEVLSNHSLCGTGTTAKLIKEATGLEVFPYKSGPMGGDQQIGAAIVNEDIDFMIFFWDPLTAQPHDPDVKALLRISVLYDIPIAMNESTAEFLIKSPIMKEQHERHIIDYYQKIRKDNF
With B1, in data set [1], the Km came to 776 ± 5 µM.

B2: Ralstonia eutropha H16 methylglyoxal synthase (mgsA), wild type (Cupriavidus necator H16) (protein)
chain: MTRPRIALIAHDHKKDDIVAFATRHRAFLSQCELLATGTTGGRLIDEVGLEVTRMLSGPWGGDLQIGAQLAVGLVRAVVFLRDPMTPQPHEPDINALVRACDVHNVPCATNVATAELLIAGLAREVDEAAAS
As for B2, the Km in data set [2] stood at 700 ± 30 µM.

B3: Bacillus subtilis 168 methylglyoxal synthase (mgsA), wild type (Bacillus subtilis subsp. subtilis str. 168) (protein)
chain: MKIALIAHDKKKQDMVQFTTAYRDILKNHDLYATGTTGLKIHEATGLQIERFQSGPLGGDQQIGALIAANALDLVIFLRDPLTAQPHEPDVSALIRLCDVYSIPLATNMGTAEILVRTLDEGVFEFRDLLRGEEPNV
Consider B3, for which, in data set [3], the Km was 473 ± 70 µM.

B4: E. coli MG1655 methylglyoxal reductase (ydjG), wild type (Escherichia coli K-12) (protein)
chain: MKKIPLGTTDITLSRMGLGTWAIGGGPAWNGDLDRQICIDTILEAHRCGINLIDTAPGYNFGNSEVIVGQALKKLPREQVVVETKCGIVWERKGSLFNKVGDRQLYKNLSPESIREEVAASLQRLGIDYIDIYMTHWQSVPPFFTPIAETVAVLNELKSEGKIRAIGAANVDADHIREYLQYGELDIIQAKYSILDRAMENELLPLCRDNGIVVQVYSPLEQGLLTGTITRDYVPGGARANKVWFQRENMLKVIDMLEQWQPLCARYQCTIPTLALAWILKQSDLISILSGATAPEQVRENVAALNINLSDADATLMREMAEALER
In the case of B4, the Km in data set [4] turned out to be 3310 ± 20 µM.

B5: Thermus thermophilus HB27 methylglyoxal synthase (mgsA), wild type (Thermus thermophilus HB27) (protein)
chain: MKALALIAHDAKKDEMVAFCLRHKDVLARYPLLATGTTGARIQEATGLAVERVLSGPLGGDLQIGARVAEGKVLAVVFLQDPLTAKPHEPDVQALMRVCNVHGVPLATNLVAAEALIAWIRKGTPQ
As for B5, the Km in data set [5] is 2118 ± 70 µM.

B6: Pseudomonas fluorescens Pf-5 methylglyoxal synthase (mgsA), wild type (Pseudomonas protegens Pf-5) (protein)
chain: MIGISFTHKTMAARKRIALVAHDHCKAFLLEWAGRQKARLAEHELVATGTTGLLLSKHLGLPVESMISGPLGGDQQLGAQIAEQRVDLLVFFWDPFEPQPHDPDIKALLRVAAVWNIPVACNECSADYLLSSPLMNQAHEHRIPDYQAYLAGRG
Turning to B6, in data set [6], the Km worked out at 1560 ± 20 µM.
